Results: PMC9482650, “Quantitative fragmentomics allow affinity mapping of interactomes” (Nature Communications, 2022)
Each block holds one binder with its values, some of them ahead of it.

Experiments:
Test in all cases: holdup assay
Parameters in all cases: key: below the threshold = too weak to quantify, mostly under pKd 3.1 to 4
Settings in all cases: plain residues with an end cap or a label only (N-terminal biotin on a linker: ado-ado)
SCRIB_3, Q14160 = biological target: SCRIB_3, Q14160
Inadl_10, Q8NI35 = biological target: Inadl_10, Q8NI35
PARD3_3, Q8TEW0 = biological target: PARD3_3, Q8TEW0
DFNB31_1, Q9P202 = biological target: T1, DFNB31_1, Q9P202
T1 sequence (Q9P202 135-233, limits assumed, looked up): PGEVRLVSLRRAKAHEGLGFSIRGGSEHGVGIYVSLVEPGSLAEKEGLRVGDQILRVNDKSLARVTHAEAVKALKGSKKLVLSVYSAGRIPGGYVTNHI

MAGI2_3, Q86UL8 = biological target: MAGI2_3, Q86UL8
DVL3, Q92997 = biological target: T2, DVL3, Q92997
T2 sequence (Q92997 244-331, limits assumed, looked up): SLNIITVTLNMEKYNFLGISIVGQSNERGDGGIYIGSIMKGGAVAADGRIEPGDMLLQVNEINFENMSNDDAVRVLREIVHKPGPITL

MAGI2_5, Q86UL8 = biological target: MAGI2_5, Q86UL8
DLG1_2, Q12959 = biological target: DLG1_2, Q12959
NHERF4_2, Q86UT5 = biological target: NHERF4_2, Q86UT5
ARHGEF12, Q9NZN5-2 = biological target: ARHGEF12, Q9NZN5-2
PDZRN3_1, Q9UPQ7 = biological target: T3, PDZRN3_1, Q9UPQ7
T3 sequence (Q9UPQ7 244-349, limits assumed, looked up): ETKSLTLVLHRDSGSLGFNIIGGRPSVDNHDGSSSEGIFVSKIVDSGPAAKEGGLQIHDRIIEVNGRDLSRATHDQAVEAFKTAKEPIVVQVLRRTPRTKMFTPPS

AHNAK1, Q09666 = biological target: AHNAK1, Q09666
MPDZ_12, O75970 = biological target: T4, MPDZ_12, O75970
T4 sequence (O75970 1857-1958, limits assumed, looked up): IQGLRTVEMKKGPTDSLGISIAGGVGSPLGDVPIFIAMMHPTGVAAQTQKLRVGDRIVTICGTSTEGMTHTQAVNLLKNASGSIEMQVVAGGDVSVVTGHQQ

APBA2_1, Q99767 = biological target: T5, APBA2_1, Q99767
T5 sequence (Q99767 563-664, limits assumed, looked up): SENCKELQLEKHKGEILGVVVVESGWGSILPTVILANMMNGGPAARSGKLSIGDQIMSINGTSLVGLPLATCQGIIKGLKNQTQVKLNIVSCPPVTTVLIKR

DLG4_3, P78352 = biological target: DLG4_3, P78352
SCRIB_1, Q14160 = biological target: SCRIB_1, Q14160
RADIL, Q96JH8 = biological target: T6, RADIL, Q96JH8
T6 sequence (Q96JH8 971-1071, limits assumed, looked up): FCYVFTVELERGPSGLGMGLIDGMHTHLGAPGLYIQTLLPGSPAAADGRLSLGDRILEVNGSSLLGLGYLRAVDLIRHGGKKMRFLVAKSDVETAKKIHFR

LRRC7, Q96NW7 = biological target: T7, LRRC7, Q96NW7
T7 sequence (Q96NW7 1440-1537, limits assumed, looked up): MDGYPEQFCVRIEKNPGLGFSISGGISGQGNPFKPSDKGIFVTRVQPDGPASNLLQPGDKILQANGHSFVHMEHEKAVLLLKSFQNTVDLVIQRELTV

RHPN1, Q8TCX5 = biological target: T8, RHPN1, Q8TCX5
T8 sequence (Q8TCX5 508-602, limits assumed, looked up): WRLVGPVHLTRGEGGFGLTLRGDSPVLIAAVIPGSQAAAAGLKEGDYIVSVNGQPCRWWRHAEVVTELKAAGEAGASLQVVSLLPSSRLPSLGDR

DLG2_3, Q15700 = biological target: DLG2_3, Q15700
Inadl_4, Q8NI35 = biological target: Inadl_4, Q8NI35
SNTG2, Q9NY99 = biological target: T9, SNTG2, Q9NY99
T9 sequence (Q9NY99 68-166, limits assumed, looked up): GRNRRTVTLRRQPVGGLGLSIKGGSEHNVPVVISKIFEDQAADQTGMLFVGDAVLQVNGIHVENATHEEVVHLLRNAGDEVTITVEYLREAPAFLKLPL

SNTB1, Q13884 = biological target: T10, SNTB1, Q13884
T10 sequence (Q13884 107-205, limits assumed, looked up): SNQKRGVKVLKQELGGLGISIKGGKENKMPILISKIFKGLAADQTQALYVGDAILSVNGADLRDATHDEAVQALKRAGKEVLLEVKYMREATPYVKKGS

GRIP1_3, Q9Y3R0 = biological target: T11, GRIP1_3, Q9Y3R0
T11 sequence (Q9Y3R0 247-346, limits assumed, looked up): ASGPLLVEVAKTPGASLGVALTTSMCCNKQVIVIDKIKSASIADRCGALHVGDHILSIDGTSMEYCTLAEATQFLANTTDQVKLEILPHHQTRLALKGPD

GRIP1_2, Q9Y3R0 = biological target: T12, GRIP1_2, Q9Y3R0
T12 sequence (Q9Y3R0 145-248, limits assumed, looked up): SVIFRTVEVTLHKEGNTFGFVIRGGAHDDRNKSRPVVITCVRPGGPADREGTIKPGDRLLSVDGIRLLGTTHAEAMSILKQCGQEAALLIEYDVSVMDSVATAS

Sequence of Inadl_10, Q8NI35 (Q8NI35 1673-1763): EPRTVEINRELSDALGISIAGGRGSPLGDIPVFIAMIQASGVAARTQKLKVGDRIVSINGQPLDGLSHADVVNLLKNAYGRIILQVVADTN
Sequence of NHERF4_2, Q86UT5 (Q86UT5 220-308): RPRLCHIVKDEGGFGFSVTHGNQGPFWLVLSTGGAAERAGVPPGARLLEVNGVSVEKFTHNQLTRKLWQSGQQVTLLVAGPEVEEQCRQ
Sequence of SCRIB_1, Q14160 (Q14160 718-814): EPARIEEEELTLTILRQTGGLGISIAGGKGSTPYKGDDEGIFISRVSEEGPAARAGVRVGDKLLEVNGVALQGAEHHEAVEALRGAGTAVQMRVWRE
Sequence of SCRIB_3, Q14160 (Q14160 999-1103): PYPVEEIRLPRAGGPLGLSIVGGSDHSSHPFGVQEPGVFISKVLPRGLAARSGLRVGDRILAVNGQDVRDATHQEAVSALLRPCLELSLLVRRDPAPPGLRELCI
Sequence of AHNAK1, Q09666 (Q09666 4-100): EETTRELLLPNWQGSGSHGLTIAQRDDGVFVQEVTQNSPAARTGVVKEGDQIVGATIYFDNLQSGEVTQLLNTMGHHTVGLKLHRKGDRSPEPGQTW
Sequence of DLG1_2, Q12959 (Q12959 314-412): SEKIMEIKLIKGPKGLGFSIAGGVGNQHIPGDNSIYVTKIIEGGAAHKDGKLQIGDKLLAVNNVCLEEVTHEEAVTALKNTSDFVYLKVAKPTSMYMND
Sequence of Inadl_4, Q8NI35 (Q8NI35 547-651): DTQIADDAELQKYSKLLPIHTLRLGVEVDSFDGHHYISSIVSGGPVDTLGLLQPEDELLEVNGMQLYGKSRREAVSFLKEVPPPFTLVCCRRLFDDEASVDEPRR
Sequence of PARD3_3, Q8TEW0 (Q8TEW0 582-685): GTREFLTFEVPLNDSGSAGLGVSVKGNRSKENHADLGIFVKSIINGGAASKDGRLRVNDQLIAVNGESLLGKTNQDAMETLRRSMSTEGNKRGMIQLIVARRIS
Sequence of MAGI2_5, Q86UL8 (Q86UL8 915-1017): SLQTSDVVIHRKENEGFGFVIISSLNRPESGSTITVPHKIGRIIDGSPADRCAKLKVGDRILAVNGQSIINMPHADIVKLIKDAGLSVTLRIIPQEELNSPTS
Sequence of DLG4_3, P78352 (P78352 306-403): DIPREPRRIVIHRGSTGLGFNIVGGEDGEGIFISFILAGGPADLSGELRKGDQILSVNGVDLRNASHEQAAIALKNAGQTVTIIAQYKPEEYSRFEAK
Sequence of MAGI2_3, Q86UL8 (Q86UL8 600-682): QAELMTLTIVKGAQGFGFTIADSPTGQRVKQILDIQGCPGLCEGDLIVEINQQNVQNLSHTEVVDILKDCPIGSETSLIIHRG
Sequence of ARHGEF12, Q9NZN5-2 (Q9NZN5 other isoform, or with tags, fused parts or gaps): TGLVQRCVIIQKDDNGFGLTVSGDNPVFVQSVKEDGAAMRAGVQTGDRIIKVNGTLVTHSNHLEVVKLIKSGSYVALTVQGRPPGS

pKd (SCRIB_3, Q14160): 3.59
pKd (Inadl_10, Q8NI35): below the threshold
pKd (PARD3_3, Q8TEW0): 3.98
pKd (DFNB31_1, Q9P202): below the threshold
pKd (MAGI2_3, Q86UL8): below the threshold
pKd (DVL3, Q92997): 3.61
pKd (MAGI2_5, Q86UL8): below the threshold
pKd (DLG1_2, Q12959): below the threshold
pKd (NHERF4_2, Q86UT5): below the threshold
pKd (ARHGEF12, Q9NZN5-2): below the threshold
pKd (PDZRN3_1, Q9UPQ7): below the threshold
pKd (AHNAK1, Q09666): below the threshold
pKd (MPDZ_12, O75970): 3.56
pKd (APBA2_1, Q99767): 3.74
pKd (DLG4_3, P78352): 3.49
pKd (SCRIB_1, Q14160): below the threshold
pKd (RADIL, Q96JH8): 4.42
pKd (LRRC7, Q96NW7): below the threshold
pKd (RHPN1, Q8TCX5): below the threshold
pKd (DLG2_3, Q15700): 3.53
pKd (Inadl_4, Q8NI35): below the threshold
pKd (SNTG2, Q9NY99): below the threshold
pKd (SNTB1, Q13884): below the threshold
pKd (GRIP1_3, Q9Y3R0): below the threshold
pKd (GRIP1_2, Q9Y3R0): below the threshold
B1: NPSR1, Q6W5P4 (peptide)
chain: MQILSKPEFI

pKd (SCRIB_3, Q14160): 3.56
pKd (Inadl_10, Q8NI35): below the threshold
pKd (PARD3_3, Q8TEW0): below the threshold
pKd (DFNB31_1, Q9P202): below the threshold
pKd (MAGI2_3, Q86UL8): below the threshold
pKd (DVL3, Q92997): below the threshold
pKd (MAGI2_5, Q86UL8): below the threshold
pKd (DLG1_2, Q12959): below the threshold
pKd (NHERF4_2, Q86UT5): below the threshold
pKd (ARHGEF12, Q9NZN5-2): 4.26
pKd (PDZRN3_1, Q9UPQ7): below the threshold
pKd (AHNAK1, Q09666): below the threshold
pKd (MPDZ_12, O75970): below the threshold
pKd (APBA2_1, Q99767): below the threshold
pKd (DLG4_3, P78352): below the threshold
pKd (SCRIB_1, Q14160): below the threshold
pKd (RADIL, Q96JH8): below the threshold
pKd (LRRC7, Q96NW7): below the threshold
pKd (RHPN1, Q8TCX5): below the threshold
pKd (DLG2_3, Q15700): 3.7
pKd (Inadl_4, Q8NI35): below the threshold
pKd (SNTG2, Q9NY99): below the threshold
pKd (SNTB1, Q13884): below the threshold
pKd (GRIP1_3, Q9Y3R0): below the threshold
pKd (GRIP1_2, Q9Y3R0): below the threshold
B2: DUSP5, Q16690 (peptide)
chain: RSPVATATSC

pKd (SCRIB_3, Q14160): 4.06
pKd (Inadl_10, Q8NI35): below the threshold
pKd (PARD3_3, Q8TEW0): 5.15
pKd (DFNB31_1, Q9P202): below the threshold
pKd (MAGI2_3, Q86UL8): below the threshold
pKd (DVL3, Q92997): 4.01
pKd (MAGI2_5, Q86UL8): below the threshold
pKd (DLG1_2, Q12959): below the threshold
pKd (NHERF4_2, Q86UT5): 3.51
pKd (ARHGEF12, Q9NZN5-2): 3.76
pKd (PDZRN3_1, Q9UPQ7): below the threshold
pKd (AHNAK1, Q09666): below the threshold
pKd (MPDZ_12, O75970): below the threshold
pKd (APBA2_1, Q99767): below the threshold
pKd (DLG4_3, P78352): below the threshold
pKd (SCRIB_1, Q14160): below the threshold
pKd (RADIL, Q96JH8): 4.58
pKd (LRRC7, Q96NW7): below the threshold
pKd (RHPN1, Q8TCX5): 3.47
pKd (DLG2_3, Q15700): below the threshold
pKd (Inadl_4, Q8NI35): below the threshold
pKd (SNTG2, Q9NY99): below the threshold
pKd (SNTB1, Q13884): below the threshold
pKd (GRIP1_3, Q9Y3R0): below the threshold
pKd (GRIP1_2, Q9Y3R0): 3.53
B3: FAM71C, Q8NEG0 (peptide)
chain: STYCDYTIEI
